Assays:
[1] = target: human FcγRIIIa/158V on Jurkat cells (human)
[2] = target: human FcγRIIa/131H on Jurkat cells (human) (UniProt P12318)
UniProt P12318, sequence (P12318 34-317): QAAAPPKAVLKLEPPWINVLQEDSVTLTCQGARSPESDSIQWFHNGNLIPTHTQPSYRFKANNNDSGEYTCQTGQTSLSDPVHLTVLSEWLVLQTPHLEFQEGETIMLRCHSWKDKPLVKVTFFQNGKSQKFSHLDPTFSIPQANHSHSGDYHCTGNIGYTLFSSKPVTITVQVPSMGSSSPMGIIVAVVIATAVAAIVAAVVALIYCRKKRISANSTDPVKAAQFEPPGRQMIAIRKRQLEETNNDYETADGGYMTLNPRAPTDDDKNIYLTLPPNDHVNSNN

human FcγRIIIa/158V on Jurkat cells (human), sequence (P08637 17-208): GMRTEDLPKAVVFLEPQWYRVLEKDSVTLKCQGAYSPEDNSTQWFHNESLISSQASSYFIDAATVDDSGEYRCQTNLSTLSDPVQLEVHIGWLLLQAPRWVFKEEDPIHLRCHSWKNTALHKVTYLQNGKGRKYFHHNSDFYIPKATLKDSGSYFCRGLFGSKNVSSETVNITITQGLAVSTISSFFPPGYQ

Row | EC50 of luciferase activity of Jurkat/FcγRIIIa/NFAT-Luc cells co-cultured with Daudi cells and serially diluted mAb [1] [µg/mL] | EC50 of luciferase activity of Jurkat/FcγRIIa/NFAT-Luc cells co-cultured with Daudi cells and serially diluted mAb [2] [µg/mL] | Substance
1 | 0.034 | – | rituximab (wild-type, anti-CD20 mAb, IgG1) (antibody)
2 | 0.016 | 0.057 | rituximab G236A/S239D/I332E variant (antibody)

— PMC3994145
